Measured values published in the supplement of paper PMC9732359.
± gives the uncertainty stated by the source.

Test: protein stability index of a GFP-peptide fusion (yeast GPS) (PSI 1-4); higher = more stable; sorted into four equal gates, so the index is relative within each strain
In short: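 Yeast carrying a pooled library were grown to mid-log phase in leucine-free medium. Each library plasmid expresses Cherry and has a tiled 17-residue yeast protein peptide fused downstream of GFP. Cells were sorted into four equal gates by GFP/Cherry ratio, and plasmids from each gate were PCR-amplified, Illumina-sequenced and assigned to strains by barcode. Summing, across gates, the read frequency times the gate number gave each peptide's protein stability index.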

| Sequence | protein stability index (doa10∆) | protein stability index (pdr5∆) | protein stability index (san1∆) | protein stability index (ubr1∆) |
| --- | --- | --- | --- | --- |
| RLKVFEGIPPPYDKKKR [RPL16A] | 2.99 ± 0.087 | 2.9 ± 0.094 | 3.05 ± 0.065 | 2.97 ± 0.08 |
| RLKYALNGREVKAILMQ [RPS4A] | 1.74 ± 0.073 | 1.39 ± 0.062 | 1.62 ± 0.18 | 1.24 ± 0.05 |
| RLNENKKIGCYMFANLE [CSN12] | 2.76 ± 0.17 | 3.14 ± 0.18 | 3.25 ± 0.084 | 3.27 ± 0.11 |
| RMIPPRMVRSIMWQLLD [SSN3] | 1.95 ± 0.18 | 1.68 ± 0.12 | 1.56 ± 0.11 | – |
| RMKSITSTSQKIPSASI [SNF5] | 3.2 ± 0.082 | 3.18 ± 0.072 | 3.17 ± 0.045 | 3.08 ± 0.051 |
| RMPMDFKGVIVKIVDKD [PRE1] | 2.25 ± 0.17 | 3.11 ± 0.18 | 3.19 ± 0.22 | 2.37 ± 0.056 |
| RMSSEEVNSLLLQVNKT [GRR1] | 3.03 ± 0.16 | 3.13 ± 0.2 | 2.96 ± 0.19 | 2.78 ± 0.16 |
| RNAALRAKAEAAEFRYK [SCL1] | 2.9 ± 0.068 | 3.28 ± 0.072 | 2.93 ± 0.056 | 3 ± 0.057 |
| RNAQAQREAAAEYAQLL [RPS6A] | 2.88 ± 0.23 | 3.31 ± 0.2 | 2.85 ± 0.15 | 3.2 ± 0.12 |
| RNDKTLELMDSKKTGQF [POP1] | 3.34 ± 0.069 | 3.44 ± 0.06 | 3.18 ± 0.064 | 3.37 ± 0.05 |
| RNEEILRDIGECENEIK [SMC2] | 2.75 ± 0.094 | 2.94 ± 0.075 | 2.49 ± 0.12 | 3.23 ± 0.11 |
| RNFKKANLVNKESDLLE [BRN1] | 1.7 ± 0.099 | 1.58 ± 0.051 | 1.64 ± 0.11 | 1.43 ± 0.053 |
| RNFLETVELQVGLKNYD [RPL1A] | 3.01 ± 0.087 | 3.08 ± 0.079 | 3.1 ± 0.091 | 3.15 ± 0.074 |
| RNFSLAIIDKNTGLTFK [PRE4] | 3.14 ± 0.068 | 3.07 ± 0.071 | 3.14 ± 0.043 | 3.18 ± 0.058 |
| RNHKHALHGTAKALAAA [RPL29] | 2.502 ± 0.019 | 2.685 ± 0.017 | 2.523 ± 0.018 | 2.647 ± 0.014 |
| RNISFSDNNSRIMSRNF [SWI1] | 2.93 ± 0.047 | 2.85 ± 0.057 | 2.9 ± 0.068 | 3.16 ± 0.035 |
| RNKRAVQLPILKIIYTG [YJL039C/NUP192] | 1.6 ± 0.056 | 1.87 ± 0.048 | 1.97 ± 0.069 | 2.02 ± 0.067 |
| RNNLPAKTFGASVRIFL [RPL33A] | 2.81 ± 0.052 | 2.76 ± 0.054 | 2.84 ± 0.053 | 2.68 ± 0.052 |
| RNPDIYTREFVEAIRRS [NUT2] | 2.42 ± 0.068 | 2.15 ± 0.055 | 2.84 ± 0.15 | 3.02 ± 0.054 |
| RNVNWIERLTKRQFNNS [ITC1] | 3.05 ± 0.12 | 3.36 ± 0.15 | 3.05 ± 0.13 | 3.41 ± 0.12 |
| RNVTIQLENADTGTLDT [RPN2] | 3.11 ± 0.095 | 3.2 ± 0.082 | 3.13 ± 0.069 | 3.2 ± 0.093 |
| RPKPVSPPCYIIDHIPG [SNF5] | 1.79 ± 0.098 | 2.64 ± 0.096 | 2.28 ± 0.12 | 2.25 ± 0.079 |
| RPSITEAMMLKEEGLQQ [MED1] | 3.41 ± 0.25 | 3.65 ± 0.2 | 3.16 ± 0.061 | 2.94 ± 0.21 |
| RQFEVKQLQLAMHNSKA [POP1] | 1.95 ± 0.055 | 2.17 ± 0.059 | 1.77 ± 0.088 | 1.61 ± 0.038 |
| RQLANLIPFIVKQVLLS [NUT1] | 1.62 ± 0.032 | 1.55 ± 0.028 | 1.59 ± 0.051 | 1.69 ± 0.033 |
| RQNRNQEIFDANVQRLK [RPL13A] | 3.15 ± 0.078 | 3.19 ± 0.085 | 3.19 ± 0.055 | 3.4 ± 0.055 |

| Sequence | protein stability index (doa10∆) | protein stability index (pdr5∆) | protein stability index (san1∆) | protein stability index (ubr1∆) |
| --- | --- | --- | --- | --- |
| RQPVEGRSRDGGLRFGE [RPB2] | 2.86 ± 0.29 | – | 2.81 ± 0.17 | – |
| RQQKLLEDQQRQQKLLL [SWI1] | 3.2 ± 0.12 | 3.05 ± 0.062 | 3.03 ± 0.077 | 3.25 ± 0.069 |
| RQTLAPYAVLSQFYELR [YJR042W/NUP85] | 1.98 ± 0.12 | 2.75 ± 0.24 | 2.42 ± 0.16 | 2.35 ± 0.09 |
| RRGTALGIKKEKRIQYA [RPB2] | 1.95 ± 0.08 | 1.44 ± 0.14 | 2.33 ± 0.15 | 2.89 ± 0.072 |
| RRMGILKKILDQCKKQR [RPO31] | 1.63 ± 0.16 | 1.7 ± 0.29 | 1.61 ± 0.23 | 1.9 ± 0.098 |
| RRSKMNPLWNAIIVAGV [PRE4] | 2.87 ± 0.097 | 3.25 ± 0.12 | 2.86 ± 0.097 | 2.93 ± 0.074 |
| RRTYNTLEDKFLLLAVN [ISW2] | 1.34 ± 0.084 | 1.67 ± 0.076 | 1.18 ± 0.19 | 1.28 ± 0.071 |
| RSEFIESLLNWINRSDG [YJR042W/NUP85] | – | 3.11 ± 0.15 | 2.77 ± 0.24 | 3.22 ± 0.22 |
| RSMDAEQLGHASKRHKP [RPP1] | 2.55 ± 0.056 | 2.87 ± 0.053 | 2.73 ± 0.054 | 2.74 ± 0.046 |
| RSNGSVASLSKRNKLLT [YJL039C/NUP192] | 1.73 ± 0.1 | 1.55 ± 0.068 | 2.1 ± 0.12 | 1.54 ± 0.062 |
| RSYDLTRHQNTIHAKRK [RPN4] | 2.48 ± 0.061 | 2.48 ± 0.065 | 2.52 ± 0.071 | 2.53 ± 0.07 |
| RTLWPEFIPPDPTKVTE [SSN8] | 2.49 ± 0.042 | 2.73 ± 0.038 | 2.78 ± 0.04 | 2.671 ± 0.026 |
| RTQAGDIVSIDIEEPQL [MTW1] | 2.99 ± 0.12 | 3.26 ± 0.1 | 3.36 ± 0.061 | 3.24 ± 0.081 |
| RTRRLKRKRRKVRARSK [RPL41A] | – | 3.13 ± 0.22 | – | 3.22 ± 0.2 |
| RVFNAKDTTGPKAISNF [YCS4] | 2.9 ± 0.1 | 2.82 ± 0.13 | 3.18 ± 0.11 | 2.9 ± 0.1 |
| RVLITQRHIAVGKQIVN [RPS9A] | 2.22 ± 0.072 | 1.92 ± 0.087 | 2.83 ± 0.12 | 2.59 ± 0.15 |
| RVNEMVQGMNDDIFIRY [ECM29] | 1.7 ± 0.095 | 1.89 ± 0.17 | 2.09 ± 0.19 | 2.39 ± 0.11 |
| RVSLQDIKDFADKVYTK [QCR2] | 2.85 ± 0.069 | 3.07 ± 0.082 | 2.62 ± 0.079 | 2.67 ± 0.076 |
| RYFWLDHNGVPFPQYPA [ITC1] | 2.22 ± 0.096 | 2.81 ± 0.086 | 3.08 ± 0.1 | 2.47 ± 0.06 |
| RYPMNLLEFIIDEIAYL [ECM29] | 2.43 ± 0.097 | 2.89 ± 0.1 | 2.75 ± 0.091 | 2.89 ± 0.2 |
| RYVYAHFPINVNIVEKD [RPL9A] | 2.04 ± 0.048 | 2.17 ± 0.049 | 2.06 ± 0.062 | 2.19 ± 0.043 |
| SAENRDEKDYLTNQQPK [CSE2] | 2.76 ± 0.063 | 2.79 ± 0.062 | 2.54 ± 0.048 | 2.77 ± 0.038 |
| SAESWGTGRAVARIPRV [RPL4A] | 3.06 ± 0.19 | 3.51 ± 0.28 | 2.65 ± 0.21 | 2.75 ± 0.27 |
| SAFKFIHTQLSEIKQQI [YJL039C/NUP192] | 2.33 ± 0.1 | 2.62 ± 0.087 | 2.82 ± 0.12 | 2.83 ± 0.061 |
| SAGNDKMVKAWNLNQFQ [ASC1] | 2.46 ± 0.044 | 2.38 ± 0.054 | 2.15 ± 0.065 | 2.36 ± 0.041 |
